Source: the supplement of paper PMC7877785
± gives the uncertainty stated by the source.

Test: self-splicing fitness, log relative to wild type (ln ratio); higher = more splicing; Tetrahymena group I intron in knt gene, E. coli kanamycin selection, DiMSum; sequences stand for … in CUCUCU…GGAGGGAAAAGUUAUCAGGCAUGCACCUGGUAGCUAGUCUUUAAACCAAUAGAUUGCAUCGGUUUAAAAGGCAAGACCGUCAAAUUGCGGGAAAGGGGUCAACAGCCGUUCAGUACCAAGUCUCAGGGGAAACUUUGAGAUGGCCUUGCAAAGGGUAUGGUAAUAAGCUGACGGACAUGGUCCUAACCACGCAGCCAAGUCCUAAGUCAACAGAUCUUCUGUUGAUAUGGAUGCAGUUCACAGACUAAAUGUCGGUCGGGGAAGAUGUAUUCUUCUCAUAAGAUAUAGUCGGACCUCUCCUUAAUGGGAGCUAGCGGAUGAAGUGAUGCAACACUGGAGCCGCUGGGAACUAAUUUGUAUGCGAAAGUAUAUUGAUUAGUUUUGGAGUACUCGUGGUCG
In short: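 A randomised library covering all eight P1ex-region intron nucleotides was built with the intron in the knt kanamycin-resistance gene on pET-22b(+) and held in E. coli BL21(DE3). Cells were grown overnight at 37°C or 30°C on LB agar, with or without 25 μg/mL kanamycin, plus 100 μg/mL carbenicillin, 50 μM IPTG and 0.2% rhamnose, and pooled colonies were amplicon-sequenced on an Illumina HiSeq 2500. DiMSum fitness is the error-weighted combination of wild-type-normalised replicate fold changes, kanamycin versus none.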

Row | Sequence | self-splicing fitness (ln) (30 °C) | self-splicing fitness (ln) (37 °C)
1 | UCCUAGCAAUAUUACGACAU | -3.634 ± 0.026 | -2.16 ± 0.037
2 | UCCUAGCAAUAUUACGACGG | -2.14 ± 0.13 | -0.657 ± 0.14
3 | UCCUAGCAAUAUUACGAGGC | -2.31 ± 0.13 | -3.06 ± 0.26
4 | UCCUAGCAAUAUUACGCCAA | -3.18 ± 0.28 | -2.5 ± 0.25
5 | UCCUAGCAAUAUUACGCUCU | -3.33 ± 0.3 | -2.67 ± 0.3
6 | UCCUAGCAAUAUUACGCUUA | -2.77 ± 0.23 | -3.22 ± 0.35
7 | UCCUAGCAAUAUUACGGAAA | -1.98 ± 0.23 | -2.51 ± 0.29
8 | UCCUAGCAAUAUUACGGCUU | -3.41 ± 0.15 | -2.47 ± 0.2
9 | UCCUAGCAAUAUUACGGGAC | -3.32 ± 0.22 | -2.73 ± 0.2
10 | UCCUAGCAAUAUUACGGUAA | -0.552 ± 0.12 | -0.427 ± 0.11
11 | UCCUAGCAAUAUUACGGUUU | -1.44 ± 0.083 | -1.16 ± 0.12
12 | UCCUAGCAAUAUUACGUACA | -2.45 ± 0.27 | -0.735 ± 0.16
13 | UCCUAGCAAUAUUACGUAGC | -3.05 ± 0.14 | -2.23 ± 0.16
14 | UCCUAGCAAUAUUACGUAUU | -4.31 ± 0.2 | -2.48 ± 0.22
15 | UCCUAGCAAUAUUACGUGUG | -2.41 ± 0.28 | -2.47 ± 0.22
16 | UCCUAGCAAUAUUACGUGUU | -3.7 ± 0.21 | -2.94 ± 0.19
17 | UCCUAGCAAUAUUACGUUGC | -3.64 ± 0.16 | -2.74 ± 0.19
18 | UCCUAGCAAUAUUACGUUUA | -2.15 ± 0.18 | -2.54 ± 0.23
19 | UCGAAGCAAUAUUACGAAAU | – | -2.56 ± 0.41
20 | UCGAAGCAAUAUUACGACAU | -3.755 ± 0.027 | -2.29 ± 0.038

Row | Sequence | self-splicing fitness (ln) (30 °C) | self-splicing fitness (ln) (37 °C)
21 | UCGAAGCAAUAUUACGAUAC | -3.33 ± 0.25 | –
22 | UCGAAGCAAUAUUACGAUGC | -2.65 ± 0.15 | -1.92 ± 0.18
23 | UCGAAGCAAUAUUACGCACG | -1.8 ± 0.14 | -0.85 ± 0.14
24 | UCGAAGCAAUAUUACGCACU | -2.62 ± 0.18 | -0.962 ± 0.14
25 | UCGAAGCAAUAUUACGCAGA | -2.28 ± 0.2 | -2.85 ± 0.27
26 | UCGAAGCAAUAUUACGCGAU | -3.31 ± 0.32 | –
27 | UCGAAGCAAUAUUACGCGCC | – | -1.49 ± 0.28
28 | UCGAAGCAAUAUUACGCGUC | – | -0.484 ± 0.32
29 | UCGAAGCAAUAUUACGCUCA | -2.11 ± 0.19 | -0.861 ± 0.23
30 | UCGAAGCAAUAUUACGGACU | -1.07 ± 0.11 | 0.0804 ± 0.13
31 | UCGAAGCAAUAUUACGGAGA | -2.69 ± 0.24 | -2.44 ± 0.32
32 | UCGAAGCAAUAUUACGGAUG | -2.8 ± 0.13 | -1.68 ± 0.11
33 | UCGAAGCAAUAUUACGGGCA | -0.603 ± 0.094 | -0.507 ± 0.1
34 | UCGAAGCAAUAUUACGGUGA | -0.813 ± 0.077 | 0.158 ± 0.091
35 | UCGAAGCAAUAUUACGUAAA | -1.72 ± 0.11 | -0.804 ± 0.14
36 | UCGAAGCAAUAUUACGUGCA | -0.485 ± 0.096 | -0.214 ± 0.095
37 | UCGAAGCAAUAUUACGUGGA | -2.29 ± 0.14 | -2.46 ± 0.16
38 | UCGAAGCAAUAUUACGUGUA | -2.47 ± 0.17 | -1.71 ± 0.18
39 | UCGAAGCAAUAUUACGUUUC | -1.9 ± 0.14 | -3.66 ± 0.36
